{"source": "the nanobody polyreactivity screen of Harvey et al. (2022)", "test": "yeast display, Sf9 membrane polyspecificity reagent, FACS + sequencing; frameworks hold sequencing errors", "summary_of_the_method": "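Using colony PCR, genes from sorted yeast display clones were amplified, then sequenced on MiSeq at 2 × 250 and filtered by CDR length. The clones had been stained with 10% biotinylated, detergent-solubilized Sf9 membrane reagent for 1 hour at 4 °C and sorted by FACS into low and high (top ~1%) gates on anti-HA and streptavidin fluorescence. Polyreactivity labels come from the gate of origin.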", "data": [{"sequence": "QVQLVESGGGLVQAGGSLRLSCAASGSIIKRNDMGWYRQAPGKERELVASITWRGGRTYYADSVKGRFTISRDNAKNTVYLQMNSLTPEDTSVYYCATTQYPSHYDAYGYWGQGTQVTVSS", "values": [{"measurement": "polyreactivity (PSR sort gate)", "value": "high polyreactivity"}]}, {"sequence": "QVQLVESGGGLVQAGGSLRLSCAASGSIIKSYAMGWYRQAPGKGRELVAAISSGGSTNYADSVKGRFTISRDNAKNTVYLQMNSLKPEDTAVYYCAARFRVDHRPYYYWGQGTQVTVSS", "values": [{"measurement": "polyreactivity (PSR sort gate)", "value": "low polyreactivity"}]}, {"sequence": "QVQLVESGGGLVQAGGSLRLSCAASGSIIKVYAMGWYRQAPGKERELVAAITSDGSTYYADSVKGRFTISRDNAKNTVYLQLNSLKPVDTAVYYCAASVYYLYFHGKYDYWGQGTQVTVSS", "values": [{"measurement": "polyreactivity (PSR sort gate)", "value": "low polyreactivity"}]}, {"sequence": "QVQLVESGGGLVQAGGSLRLSCAASGSIIKYYAMGWYRQAPGKERELVAAISWRGGRTYADSVKGRFTISRDNAKNTVYLQLNSLKPEDTAVYYCNARAPQGYGTHRSKYRWGPMGYWGQGTQVTVSS", "values": [{"measurement": "polyreactivity (PSR sort gate)", "value": "high polyreactivity"}]}, {"sequence": "QVQLVESGGGLVQAGGSLRLSCAASGSIINFNAMGWYRQQPGKERELDARINQGGGSTYYADSVKGRFTISRDNAKNTVYLQMNSLKPEDTAVYYCAAVRYVLRSPARYGYWGQGTQVTVSS", "values": [{"measurement": "polyreactivity (PSR sort gate)", "value": "low polyreactivity"}]}, {"sequence": "QVQLVESGGGLVQAGGSLRLSCAASGSIIPYNAMGWYRQAPGKERYLVATISSGGSTNYADSVKGRFTISRDNAKNTVYLQMNSLKPEDTAVYYCAADVIVFYYAPNYWGDIEYGYWGQGTQVTVSS", "values": [{"measurement": "polyreactivity (PSR sort gate)", "value": "low polyreactivity"}]}, {"sequence": "QVQLVESGGGLVQAGGSLRLSCAASGSIIRGNAMGWYRQAPGKERELVAAISGSGGSTYYADSVKGRFTISRDNAKNTVYLQMNSLKPEDTAVYYCAARYVTSIYAYYYWGQGTQVTVSS", "values": [{"measurement": "polyreactivity (PSR sort gate)", "value": "high polyreactivity"}]}, {"sequence": "QVQLVESGGGLVQAGGSLRLSCAASGSIIRGYTMGWYRQAPGKERELVADITQSTGSTYYADSVKGRFTISRDTAKNTVYFQMNSLKPEDTAVYYCAAVEGWYLFTSNYWGQGTQVNVSS", "values": [{"measurement": "polyreactivity (PSR sort gate)", "value": "low polyreactivity"}]}, {"sequence": "QVQLVESGGGLVQAGGSLRLSCAASGSIIRTYAMGWYRQAPGKERQLVATITFGGVSTYNADSVKGRFTISRDNAKNTVYLQMNSLKPEDSAVYYCAADVYTRFWRVYRFDYWGQGTQVTVSS", "values": [{"measurement": "polyreactivity (PSR sort gate)", "value": "low polyreactivity"}]}, {"sequence": "QVQLVESGGGLVQAGGSLRLSCAASGSIIRVNTMGWYRQAPGKERELVAGITSRGGSTYYADSVKGRFTISRDNAKNTVYLQMISLKPEDTAFYYCANRAYGTALYRGYGNWGQGTQVTVSS", "values": [{"measurement": "polyreactivity (PSR sort gate)", "value": "low polyreactivity"}]}, {"sequence": "QVQLVESGGGLVQAGGSLRLSCAASGSIISGYAMGWYRQAPGKERELVASISSSGGRTYYAYSVKGRYTISRDNAKNTVYLPRNSLKPEDTAVYYCNVKSYTYGYLPYDYWGQGTQVTVSS", "values": [{"measurement": "polyreactivity (PSR sort gate)", "value": "high polyreactivity"}]}, {"sequence": "QVQLVESGGGLVQAGGSLRLSCAASGSIISNYVMGWYRPAPGKERELVAAITRRGGRTYYADSVKGRFTISRDNAKNTVYLQMNSLKPEDTAVYYCAAERYPEAGSPYGTAEMDYWGQGTLVTVSS", "values": [{"measurement": "polyreactivity (PSR sort gate)", "value": "high polyreactivity"}]}, {"sequence": "QVQLVESGGGLVQAGGSLRLSCAASGSIISSYTMGWYRQAPGKERELVAVITSGDSTNYADSVKGRFTISRDNAKNTVYLEMNSLKPEDTAVYYCNADYVKVFKLQFDYWGQGTQVTVSS", "values": [{"measurement": "polyreactivity (PSR sort gate)", "value": "low polyreactivity"}]}, {"sequence": "QVQLVESGGGLVQAGGSLRLSCAASGSIITGYAMGWYRQAPVKERELVAGINSGTSTNYADSVKGRFTISRDNAKNTVSLQMNSLKPEDTAVYYCAKTAERRHYGVYRFDYWGQGTQVTVSS", "values": [{"measurement": "polyreactivity (PSR sort gate)", "value": "low polyreactivity"}]}, {"sequence": "QVQLVESGGGLVQAGGSLRLSCAASGSIIVGYAMGWYRQAPGKERELVAAISWSGGRTYYADSVKGRFTISRDNAKNTVYLQMNSLKPEDTAVYYCATVTKGSLRYNYNYWGQGTQVTVSS", "values": [{"measurement": "polyreactivity (PSR sort gate)", "value": "high polyreactivity"}]}, {"sequence": "QVQLVESGGGLVQAGGSLRLSCAASGSIIVLNAMGWYRQAPGKERELVAAISSDGITYYADSVKGRFTISRDNAKNTVYLQKNSLKPEDTAVYYCAAYRVDYSDAYYYWGQGTQVTVSS", "values": [{"measurement": "polyreactivity (PSR sort gate)", "value": "low polyreactivity"}]}, {"sequence": "QVQLVESGGGLVQAGGSLRLSCAASGSIIVYYGMGWYRQAPGKERELVAAISSGGSTHYADSVKGRFTISRDNAKNSVYLQMNSVKPEDTAVYYCAADRFFWLRSYPRYYYWGQGTQVTVSS", "values": [{"measurement": "polyreactivity (PSR sort gate)", "value": "low polyreactivity"}]}]}
